Square brackets hold non-standard residues; d marks the D form. pGlu = O=C1CC[C@@H](C(=O)O)N1; PEG = not defined here
Assays:
[1] = target: T1, CCL8 (known as MCP-2) pyroglutamate-peptide (UniProt P80075 24-99, limits assumed, N-terminal pyroglutamate); experiment: SPR, peptide immobilized on CM5 chip (data not shown)
T1 sequence (peptide, looked up): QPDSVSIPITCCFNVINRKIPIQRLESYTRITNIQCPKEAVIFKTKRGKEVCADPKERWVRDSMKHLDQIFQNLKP

[2] = target: T2, big gastrin pyroglutamate-peptide (UniProt P01350 59-92, N-terminal pyroglutamate); experiment: as above
T2 peptide (looked up): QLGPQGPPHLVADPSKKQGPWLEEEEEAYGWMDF

[3] = target: T3, gonadoliberin pyroglutamate-peptide (UniProt P01148 24-33, N-terminal pyroglutamate); experiment: as above
T3 peptide (looked up): QHWSYGLRPG

[4] = target: neurotensin pyroglutamate-peptide (UniProt P30990 151-163, N-terminal pyroglutamate); experiment: as above
[5] = target: T4, orexin A pyroglutamate-peptide (UniProt O43612 34-66, N-terminal pyroglutamate); experiment: as above
T4 peptide (looked up): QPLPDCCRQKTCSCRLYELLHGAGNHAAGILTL

[6] = target: CCL2 (known as MCP-1) pyroglutamate-peptide (UniProt P13500 24-99, limits assumed, N-terminal pyroglutamate); experiment: as above
Chain of CCL2 (known as MCP-1) pyroglutamate-peptide (P13500 24-99 limits assumed): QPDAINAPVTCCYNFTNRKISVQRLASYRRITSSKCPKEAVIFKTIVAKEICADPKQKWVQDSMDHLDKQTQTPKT

AβpE(3-40) peptide = target: T5, AβpE(3-40) peptide (N-terminal pyroglutamate (Aβ position 3)); experiment: SPR, 1 µg/ml antibody over immobilized AβpE(3-40) against immobilized AβpE(11-30)
T5 construct: Immobilized on a CM5 chip at 1830 RU; also called Aβ3(pE); Aβ N3pE-40
T5 sequence (peptide, as listed by the source): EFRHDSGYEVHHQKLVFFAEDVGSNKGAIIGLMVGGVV

Aβ(pE11-18)-PEG peptide [7] = target: T6, Aβ(pE11-18)-PEG peptide (reading uncertain); experiment: ITC at 20 °C, peptide titrated into antibody eluted with KSCN gradient (KD=1/KA)
T6 construct: The PEG attachment is not described further
T6 peptide: [pGlu]VHHQKLV-{PEG}
Method: (§1) For the ITC experiment, the peptide Aβ(pE11-18)-PEG was used because the hydrophilic PEG group imparts hydrophilic properties and so it was possible to dissolve the peptide directly in ITC buffer. Former experiments with Aβ(pE11-20) could only be performed with 1-2% DMSO, due to the strong hydrophobicity of the peptide it was necessary to dissolve it with DMSO which could have an effect on the ITC binding properties. At first the antibody was dialyzed against ITC buffer (150 mM NaCl, 25 mM Na₂HPO₄, 25 mM KH₂PO₄, 1 mM EDTA, pH=7.1) over night at 4° C. The lyophilised peptide, stored at −20° C., was dissolved in identical ITC buffer pH=7.1 which was used for antibody dialysis. Both antibody and antigen must be in identical solutions, otherwise large heats of dilution will mask the desired observation. Before the ITC experiment, the concentration of antibody was determined by UV/VIS spectroscopy (see section 1.3.1). […] Furthermore the heat of reaction was determined which was only generated by dilution of the antigen through the titration into ITC buffer (pH=7.1). […]
(§2) To characterize the binding of anti Aβ11(pE) antibody at the Aβ(pE11-18)-PEG peptide the method of Isothermal Titration calorimetry (ITC) was used (see section 1.3.4). The antibody which was eluted from protein G column with KSCN-gradient (pH 7.0) and 0.1 M glycine-HCl (pH 2.7) was analyzed.

Aβ(pE11-18)-PEG peptide [8] = target: T6, Aβ(pE11-18)-PEG peptide; experiment: ITC at 20 °C, peptide titrated into antibody eluted with 0.1 M glycine-HCl pH 2.7
Method: For the ITC experiment, the peptide Aβ(pE11-18)-PEG was used because the hydrophilic PEG group imparts hydrophilic properties and so it was possible to dissolve the peptide directly in ITC buffer. Former experiments with Aβ(pE11-20) could only be performed with 1-2% DMSO, due to the strong hydrophobicity of the peptide it was necessary to dissolve it with DMSO which could have an effect on the ITC binding properties. At first the antibody was dialyzed against ITC buffer (150 mM NaCl, 25 mM Na₂HPO₄, 25 mM KH₂PO₄, 1 mM EDTA, pH=7.1) over night at 4° C. The lyophilised peptide, stored at −20° C., was dissolved in identical ITC buffer pH=7.1 which was used for antibody dialysis. Both antibody and antigen must be in identical solutions, otherwise large heats of dilution will mask the desired observation. Before the ITC experiment, the concentration of antibody was determined by UV/VIS spectroscopy (see section 1.3.1). At first the antibody with e.g. 5.13 μM (see Table 4) was added into the sample cell and the reference cell was filled with distilled water. Then the antigen was injected into the sample cell with e.g. 81.78 μM (see Table 4). The antigen should be generally in twofold excess to the antibody, bearing in mind that an antibody has two binding sites the antigen was in the cell at least in fourfold excess to the antibody. The 30 injections (1×2 μl and 29×10 μl) were made with a 4-min interval between subsequent injections. The measurement of heat of reaction was performed at 20° C. Furthermore the heat of reaction was determined which was only generated by dilution of the antigen through the titration into ITC buffer (pH=7.1). Therefore the antigen was injected into the sample cell filled with ITC buffer. […]
as §2

Aβ(pE11-18)-PEG peptide [9] = target: T6, Aβ(pE11-18)-PEG peptide; experiment: ITC at 20 °C, peptide titrated into antibody eluted with 0.1 M glycine-HCl pH 2.7 (KD=1/KA)
Method: as §1, §2

Aβ(pE11-20)-biotin = target: T7, Aβ(pE11-20)-biotin; experiment: ELISA: 200 ng/ml Aβ(pE11-20)-biotin on streptavidin plate, antibody 55-3500 pg/ml, detection with rabbit anti-mouse Ig's HRP, absorption 450/540 nm
T7 construct: Immobilized on streptavidin-coated microplates in the auto-Ig-ELISA
T7 peptide: [pGlu]VHHQKLVFF-biotin
Method: Immobilization of 200 ng/ml Aβ(pE11-20)-biotin at streptavidin coated microplate (2 h, at RT). Blocking with 200 μl ELISA-Blocker (−T) 1 h at RT and followed by wash cycle (3×300 μl/well wash buffer). Standard anti Aβ11(pE) antibody (clone 13) was diluted in ELISA-Blocker (+T) in radix division from 3500 pg/ml down to 55 pg/ml and incubated 2 h at 4° C. A wash cycle followed and detection with polyclonal rabbit anti-mouse Ig's HRP 1 h at 4° C. After wash cycle TMB/H₂O₂ were added, incubated 30 min at RT (dark) and enzyme reaction was stopped with 1 M H₂SO₄. Absorption was measured at 450/540 nm at TECAN Sunrise.

binding result [1]: no binding (tested: 1 µg/ml antibody) | binding result [2]: no binding (tested: 1 µg/ml antibody) | binding result [3]: no binding (tested: 1 µg/ml antibody) | binding result [4]: no binding (tested: 1 µg/ml antibody) | binding result [5]: no binding (tested: 1 µg/ml antibody) | binding result [6]: no binding (tested: 1 µg/ml antibody) | cross reactivity relative to AβpE(11-30) (AβpE(3-40) peptide): 4 magnitudes lower | Kd (Aβ(pE11-18)-PEG peptide [7]): 78.7 nM | -TΔS (Aβ(pE11-18)-PEG peptide [8]): -1.36 kcal/mol | Ka (Aβ(pE11-18)-PEG peptide [8]): 9.5e+06 M⁻¹ | Stoichiometry (N) (Aβ(pE11-18)-PEG peptide [8]): 1.01 | Kd (Aβ(pE11-18)-PEG peptide [9]): 105 nM | binding result (Aβ(pE11-20)-biotin): binds
B1: monoclonal mouse anti Aβ11(pE) antibody Aβ 13-11-6 (clone 13), Deposit No. DSM ACC 3100 (antibody, V domains shown)
VH: QVQLQQPGTELVKPGASVKLSCKASGFTFTSYWMHWVRQRPGQGLEWIGEINPSNGRTNYNEKFKSKATLTVDKSSSTAYMQLSSLTSEDSEVYYCARGDLAWDWSAYWGQGTLVTVSA
VL: DIVMSQSPSSLAVSAGEKVTMSCKSSQSLFYSRTRKNYLAWYQQKPGQSPKLLIYWASTRESGVPDRFTGSGSGTDFTLTISSVQAEDLAVYYCKQSYNLWSFGGGTKLEIKR
notes: The KSCN-eluted and glycine-HCl-eluted preparations are the same molecule; also called pEVHH-59025 13-11-6; mAb mouse anti Aβ11(pE)
